{"source": "paper PMC12676778", "about": "“Long-tailed class I myosins rely on tail-mediated phosphoinositide recognition for specific membrane recruitment” (Cell Communication and Signaling : CCS, 2025)", "key": {"[1]": {"target": "PI (unphosphorylated phosphatidylinositol) lipid vesicles", "assay": "Fluorescence-based cosedimentation of myosin-1 tails with lipid vesicles containing PI", "details": "500 nM tail, accessible phospholipid, read-out: KD, tail binding to PI", "protocol": "(§1) Phospholipid binding assays were performed using commercially available lipid vesicles (PolyPIPosomes™, 200 nm diameter; Echelon Biosciences) composed of 95% PE + PC and 5% of the phosphoinositide of interest. Accessible phospholipid concentration was calculated as half of the total phospholipid content. Myosin-1 tail (500 nM) in co-sedimentation buffer (10 mM Tris, pH 7.5, 100 mM NaCl, 1 mM EGTA) was incubated with increasing concentrations of PolyPIPosomes™ (accessible PIP range: 10 nM to 10 mM) at room temperature for 30 min, followed by centrifugation at 25,000 g to separate bound and unbound fractions. Bound myosin-1 tail was quantified either by measuring fluorescence intensity of the supernatant (Jasco FP-6500 fluorimeter, excitation 514 nm) or by western blot of pellet and supernatant fractions using anti-GST antibody as indicated in the experiments. […] Microtubule binding assays employed 100 mM PIPES (pH 6.8), 2 mM MgCl2, 1 mM EGTA, 20 µM paclitaxel, and 1 mM GTP. […] Fluorescence intensities of pellet and supernatant fractions were quantified as described above. […]\n(§2) Fig. 1 Myosin-1 tail binding to phosphoinositides. a Representative fluorescence spectra of supernatants from co-sedimentation assays with YFP-tagged myosin-1D tail and increasing concentrations of lipid vesicles containing PI(3,5)P₂. […]"}, "PC, PS lipid vesicles": {"target": "PC, PS lipid vesicles", "assay": "Cosedimentation of myosin-1 tails with lipid vesicles devoid of phosphoinositides", "details": "500 nM tail; vesicles without phosphoinositide; read-out: KD, tail binding to PC, PS", "protocol": "as §1, §2"}, "[2]": {"target": "PI(3)P lipid vesicles (PolyPIPosomes)", "assay": "Cosedimentation of myosin-1 tails with PI(3)P vesicles", "details": "500 nM tail; vesicles with 5% phosphoinositide; read-out: KD, tail binding to PI(3)P", "protocol": "as §1, §2"}, "[3]": {"target": "PI(4)P lipid vesicles (PolyPIPosomes)", "assay": "Cosedimentation of myosin-1 tails with PI(4)P vesicles", "details": "500 nM tail; vesicles with 5% phosphoinositide; read-out: KD, tail binding to PI(4)P", "protocol": "as §1, §2"}, "[4]": {"target": "PI(5)P lipid vesicles (PolyPIPosomes)", "assay": "Cosedimentation of myosin-1 tails with PI(5)P vesicles", "details": "500 nM tail; vesicles with 5% phosphoinositide; read-out: KD, tail binding to PI(5)P", "protocol": "as §1, §2"}, "[5]": {"target": "PI(3,4)P2 lipid vesicles (PolyPIPosomes)", "assay": "Cosedimentation of myosin-1 tails with PI(3,4)P2 vesicles", "details": "500 nM tail; vesicles with 5% phosphoinositide; read-out: KD, tail binding to PI(3,4)P2", "protocol": "as §1, §2"}, "[6]": {"target": "PI(3,4,5)P3 lipid vesicles (PolyPIPosomes)", "assay": "Cosedimentation of myosin-1 tails with PI(3,4,5)P3 vesicles", "details": "500 nM tail; vesicles with 5% phosphoinositide; read-out: KD, tail binding to PI(3,4,5)P3", "protocol": "as §1, §2"}, "[7]": {"test_system": "PI(3,4,5)P3 lipid vesicles", "assay": "Competitive binding of myosin-1 tails to PI(3,4,5)P3 vesicles (western blot of supernatant and pellet)", "protocol": "Phospholipid binding assays were performed using commercially available lipid vesicles (PolyPIPosomes™, 200 nm diameter; Echelon Biosciences) composed of 95% PE + PC and 5% of the phosphoinositide of interest. Accessible phospholipid concentration was calculated as half of the total phospholipid content. Myosin-1 tail (500 nM) in co-sedimentation buffer (10 mM Tris, pH 7.5, 100 mM NaCl, 1 mM EGTA) was incubated with increasing concentrations of PolyPIPosomes™ (accessible PIP range: 10 nM to 10 mM) at room temperature for 30 min, followed by centrifugation at 25,000 g to separate bound and unbound fractions. Bound myosin-1 tail was quantified either by measuring fluorescence intensity of the supernatant (Jasco FP-6500 fluorimeter, excitation 514 nm) or by western blot of pellet and supernatant fractions using anti-GST antibody as indicated in the experiments. […] Microtubule binding assays employed 100 mM PIPES (pH 6.8), 2 mM MgCl2, 1 mM EGTA, 20 µM paclitaxel, and 1 mM GTP. […] Fluorescence intensities of pellet and supernatant fractions were quantified as described above.\nTo gain deeper insight into the binding specificity of the myosin tails, we conducted competition experiments in which two tail constructs were simultaneously present in the PIP-binding assay, allowing us to assess their ability to compete for binding to the same lipid species. We performed these experiments using PI(3,4,5)P₃ (PIP₃) as an exemplary lipid, first in the absence and then in the presence of a second tail isoform. Two tail pairs were tested: those of myosin-1B and myosin-1D, and those of myosin-1C and myosin-1D (Figs. 3a, c). […] These findings establish myosin-1D as the dominant binder of PIP₃, capable of outcompeting myosin-1B and myosin-1C for membrane association.\nFig. 3 Competitive binding of myosin-1 tails to PI(3,4,5)P₃. a, c Western blots of supernatant and pellet fractions from lipid vesicles containing PI(3,4,5)P₃ following incubation with 2 µM myosin-1B tail (~ 70 kDa) (a) or myosin-1C tail (~ 70 kDa) (c) in competition with myosin-1D tail (~ 100 kDa). The total accessible PI(3,4,5)P₃ concentration was maintained at 2 µM. b, d Dashed boxes indicate the fraction of myosin-1 tails bound to lipid vesicles in the absence of the other myosin isoform. Orange bars denote the fraction of bound myosin in the presence of the competing myosin TEXT PRINTED IN THE PICTURE: (b) myosin-1D: % myosin bound to PI(3,4,5)P3: 90%; % myosin bound to PI(3,4,5)P3: 86% | (b) myosin-1B: % myosin bound to PI(3,4,5)P3: 71%; % myosin bound to PI(3,4,5)P3: 32% | (d) myosin-1D: % myosin bound to PI(3,4,5)P3: 94%; % myosin bound to PI(3,4,5)P3: 85% | (d) myosin-1C: % myosin bound to PI(3,4,5)P3: 32%; % myosin bound to PI(3,4,5)P3: 9%"}, "[8]": {"test_system": "isolated nuclei from Dictyostelium cells", "assay": "Binding of YFP-tagged myosin tail constructs to isolated nuclei, confocal microscopy", "parameters": "species or system Dictyostelium discoideum", "details": "1 µM tail construct, 30 min"}, "microtubules and F-actin": {"test_system": "microtubules and F-actin", "assay": "TIRF microscopy of microtubule/F-actin cross-linking by myosin-1 tails", "format": "biochemical", "details": "1 µM tail construct"}, "[9]": {"target": "PI(3,5)P2 lipid vesicles (PolyPIPosomes)", "assay": "Cosedimentation of myosin-1 tails with PI(3,5)P2 vesicles (fluorescence or immunoblot detection)", "details": "500 nM tail; vesicles with 5% phosphoinositide; read-out: KD, tail binding to PI(3,5)P2", "protocol": "Phospholipid binding assays were performed using commercially available lipid vesicles (PolyPIPosomes™, 200 nm diameter; Echelon Biosciences) composed of 95% PE + PC and 5% of the phosphoinositide of interest. Accessible phospholipid concentration was calculated as half of the total phospholipid content. Myosin-1 tail (500 nM) in co-sedimentation buffer (10 mM Tris, pH 7.5, 100 mM NaCl, 1 mM EGTA) was incubated with increasing concentrations of PolyPIPosomes™ (accessible PIP range: 10 nM to 10 mM) at room temperature for 30 min, followed by centrifugation at 25,000 g to separate bound and unbound fractions. Bound myosin-1 tail was quantified either by measuring fluorescence intensity of the supernatant (Jasco FP-6500 fluorimeter, excitation 514 nm) or by western blot of pellet and supernatant fractions using anti-GST antibody as indicated in the experiments. […] Fluorescence intensities of pellet and supernatant fractions were quantified as described above. […]\nas §2\nSupplementary Fig. S2. Lipid dot blot assays and comparisons between fluorescence-based detection and immunoblot detection of myosin-1-PI(3,5)P2 interactions. […]"}, "[10]": {"target": "PI(4,5)P2 lipid vesicles (PolyPIPosomes)", "assay": "Cosedimentation of myosin-1 tails with PI(4,5)P2 vesicles", "details": "500 nM tail; vesicles with 5% phosphoinositide; read-out: KD, tail binding to PI(4,5)P2", "protocol": "as §1, §2"}, "microtubules [11]": {"target": "microtubules", "parameters": "method as in Rump et al., 2010", "details": "ref Rump et al., 2010; read-out: KD, tail binding to microtubules; cited from earlier work"}, "microtubules [12]": {"test_system": "microtubules", "parameters": "method as in PMID 21712373", "details": "read-out: Inhibition of the cold-induced depolymerization of microtubules IC50; cited from earlier work"}, "[13]": {"details": "in presence of competing myosin-1D tail, 2 µM each, PI(3,4,5)P3 2 µM"}, "[14]": {"details": "single tail 2 µM, absence of other isoform, accessible PI(3,4,5)P3 2 µM"}}, "note": "“Also recorded” adds a separate entry of the source.", "data": [{"molecule": "Myosin-1B-tail: Recombinant GST-/YFP-tagged tail construct of Dictyostelium discoideum myosin-1B (amino acids 717–1111) (protein, left off: GST, N-terminal, state not stated | YFP, C-terminal, kept) QRAQIAHMFKDKKERQRNSIDRKFTSDYIDFENQFGLQEAMQNAHKKERVVFADTVIKIDRRAKQKNYEMVLTDQALYFVEKSIKKKVLVHTLIRRVGLREIKGVSISTLSDNVIVFHLPEHDQVIENDKKTEIIIVLVEYFKAIGGGSLNVQFSDRINYTLKKGEQKEISFQKSEQCPTLVVKKGGKGLIGTIASGLPSSTDSTPKNYNPNSMSQASSRPAPQQSAGRGRGMPQGAGQPQPQQPQQQQRPMPQPQQGGGARPMPQPQQGGGARPMGAPQQGGAPQQGAGRQLPQPTQQGGAPGGRGAPMGRGAPGGGPAGAGGRPLPTVAKPAPQPSRPTAKALYDYDASSTDELSFKEGDIIFIVQKDNGGWTQGELKSGQKGWAPTNYLQYN", "values": [{"measurement": "Kd", "setting": "[1]", "result": "38.2 ± 4", "unit": "µM"}, {"measurement": "Kd", "setting": "PC, PS lipid vesicles", "result": "> 100", "unit": "µM"}, {"measurement": "Kd", "setting": "[2]", "result": "8.3 ± 1", "unit": "µM"}, {"measurement": "Kd", "setting": "[3]", "result": "2.3 ± 0.4", "unit": "µM"}, {"measurement": "Kd", "setting": "[4]", "result": "7.7 ± 0.6", "unit": "µM"}, {"measurement": "Kd", "setting": "[5]", "result": "2.2 ± 0.4", "unit": "µM"}, {"measurement": "Kd", "setting": "[6]", "result": "1.1 ± 0.2", "unit": "µM"}, {"measurement": "% myosin bound to PI(3,4,5)P3", "setting": "[7]; [13]", "result": 32, "unit": "%"}, {"measurement": "% myosin bound to PI(3,4,5)P3", "setting": "[7]; [14]", "result": "~71", "unit": "%"}, {"measurement": "association of YFP-tagged tail construct with isolated nuclei", "setting": "[8]", "result": "do not bind to nuclei; also recorded: did not associate with the nuclei"}, {"measurement": "cross-linking of microtubules and actin filaments", "setting": "microtubules and F-actin", "result": "not observed"}]}, {"molecule": "Myosin-1C-tail: Recombinant GST-/YFP-tagged tail construct of Dictyostelium discoideum myosin-1C (protein, left off: GST, end not stated, state not stated | YFP, end not stated, kept, Recombinant GST-/YFP-tagged tail construct of Dictyostelium discoideum myosin-1C) RYWHDMASRIKNAYRNYKAFQFECSNRIKNAFRNYKLYRQRCAQTIQGYFRAWKQASPFFDLRMQNEQLFQGRKERNRFSMISVRKYFGDYLDVRSQSYFLDAMAEGRNEDVIFSSKSQVMVHPILSANKLSPRFLIVTKQAIYLIKLKQKKNLATYLLDRRVPLAEVTSFSLSSLADNLLVIHTSTQFDVAVTTEFKTELVALINKQKGTTLAVNFGQSIQYFKKKGSNNTVTFLKDEMHKEIFLKKNQFHIASGLPASTTVAKVRKNPSQVSTPSKPIAKPVAKPMVAKPSGGSVIMKKPAPAAPPSGPPVMKKPAPTAPGGAPMMKKPAPAPGGAPMMKKPAPVPGGPAPGGSAIMKPAGGVSKPLPSPTGAPMMKKPAPTAPGGPAPAGAPTPMMKKPAGQPMMKPIAKPQPTPMKKPAAPPPQQYIALYEYDAMQPDELTFKENDVINLIKKVDADWWQGELVRTKQIGMLPSNYVQQI", "values": [{"measurement": "Kd", "setting": "[1]", "result": "5.4 ± 0.8", "unit": "µM"}, {"measurement": "Kd", "setting": "PC, PS lipid vesicles", "result": "31.5 ± 2.7", "unit": "µM"}, {"measurement": "Kd", "setting": "[2]", "result": "4 ± 0.3", "unit": "µM"}, {"measurement": "Kd", "setting": "[3]", "result": "0.4 ± 0.1", "unit": "µM"}, {"measurement": "Kd", "setting": "[4]", "result": "0.5 ± 0.1", "unit": "µM"}, {"measurement": "Kd", "setting": "[9]", "result": "0.6 ± 0.1", "unit": "µM"}, {"measurement": "Kd", "setting": "[10]", "result": "1.1 ± 0.2", "unit": "µM"}, {"measurement": "Kd", "setting": "[6]", "result": "2.5 ± 0.3", "unit": "µM"}, {"measurement": "% myosin bound to PI(3,4,5)P3", "setting": "[7]; [13]", "result": 9, "unit": "%"}, {"measurement": "% myosin bound to PI(3,4,5)P3", "setting": "[7]; [14]", "result": "~32", "unit": "%"}, {"measurement": "association of YFP-tagged tail construct with isolated nuclei", "setting": "[8]", "result": "do not bind to nuclei; also recorded: did not associate with the nuclei"}, {"measurement": "cross-linking of microtubules and actin filaments", "setting": "microtubules and F-actin", "result": "cross-linking activity"}, {"measurement": "Kd", "setting": "microtubules [11]", "result": "0.08 ± 0.05", "unit": "µM"}, {"measurement": "IC50", "setting": "microtubules [12]", "result": "~0.002", "unit": "µM"}]}]}
